The text below walks through data of patent US20230126400A1 (Alector, published 2023).

Ends that are not written are not given here. * marks the point of attachment. Biotin = O=C1N[C@H]2[C@H](CS[C@H]2CCCCC(=O)*)N1

Experiment [1] deals with T1, human MS4A4A ECL2 peptide (amino acid residues 159-179), free (human).
T1 construct: synthetic peptide; also called huMS4A4A-ELC2 free-peptide
T1 peptide: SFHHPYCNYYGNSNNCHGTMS
Kind of experiment: array SPR (Carterra MX-96), antibody captured, peptide in solution. The protocol:
Binding kinetic characterization of the anti-MS4A4A antibodies to MS4A4A ECL1 and ECL2 and to MS4A6A ECL1 and ECL2 peptides was performed by Carterra (South San Francisco, Calif.) using a proprietary array Surface Plasmon Resonance (SPR) instrument (MX-96) as follows. Antibodies were captured onto a CMD500D chip (Xantec # SPMX CMD500D) using the Continous Flow Microspotter (CFM). First, the chip was activated with 100 mM MES pH 5.5, 100 μL EDC (133 mM final), 100 μL of S-NHS (33.3 mM final), for 7 minutes. […] Anti-MS4A4A hydridoma supernatant or purified anti-MS4A4A antibodies were diluted in HBS-EP+ buffer (Teknova Cat # H8022) and then printed as duplicates with a 20 minute and a 5-minute print from the same sample solution.
These were then injected on the chip for five minutes, followed by a seven-minute dissociation period at 8 uL per second in a non-regenerative kinetic series. Duplicate measurements for each anti-MS4A4A antibody were taken to ensure reproducibility. Association rates (Kon) and dissociation rates (Koff) were calculated using a single one-to-one Langmuir binding model. The equilibrium dissociation constant (KD) was calculated as the ration of Koff/Kon.

Experiment [2] concerns the target T2, peptide 4A.4 (human).
T2 construct: 15-mer of human MS4A4A
T2 peptide: Biotin-ASNTYGSNPISVYIG
Kind of experiment: array SPR, peptide on streptavidin chip. How it is done: (§1) Epitope binding characteristics of anti-MS4A4A antibodies are determined by two complementary approaches. First, a panel of overlapping peptides derived from the extracellular loops (ECLs) of human MS4A4A (SEQ ID NO:1) and human MS4A6A (SEQ ID NO: 291) were synthesized by JPT peptides (Berlin, Germany). These peptides were 15 amino acids in length, each offset by 2 amino acids. The peptides were biotinylated on the N-terminus. […] Anti-MS4A4A antibodies of the present disclosure and commercially-available anti-MS4A4A antibodies were tested for binding to the various linear peptides by Carterra (South San Francisco, Calif., USA) using a proprietary array SPR instrument (MX-96).
(§2) The peptide library was printed onto a streptavidin-coated chip (Xantec SAD50M, Dusseldorf, Germany) using the Continuous Flow Microspotter (CFM). First, the chip was activated with 100 mM MES, pH 5.5, 100 μL EDC (133 mM final), 100 μL of S-NHS (33.3 mM final). The peptide library was immobilized onto the chip at 250 nM per peptide diluted into HBS-EP+buffer (Teknova Cat # H8022) with 1 mg/ml BSA and 1 μg/ml mouse IgG-Biotin. Following immobilization, the chip surface was deactivated with 1M ethanolamine at pH 8.5 for 10 minutes. Hybridoma supernatants and purified anti-MS4A4A antibodies were diluted in HBS-EP+buffer with 1 mg/ml BSA and injected onto the chip. Duplicate measurements for each anti-MS4A4A antibody were taken to ensure reproducibility. Binding characteristics were determined for each peptide-antibody combination, allowing the mapping of the linear peptide region each antibody interacts with.

Experiment [3] addresses T3, peptide 4A.12 (human).
T3 construct: 15-mer of human MS4A4A
T3 peptide: Biotin-GNSNNCHGTMSILMG
The experiment can be described thus: array SPR, peptide on streptavidin chip. How it is done: as §1, §2

Experiment [4] has as its target T4, peptide 4A.1 (human).
T4 construct: 15-mer of human MS4A4A
T4 peptide: Biotin-ITMMCMASNTYGSNP
Kind of experiment: array SPR, peptide on streptavidin chip. How it is done:
as §1, §2

Experiment [5] addresses T5, peptide 4A.9 (human, cysteine pairing not given here).
T5 construct: 15-mer of human MS4A4A
T5 peptide: Biotin-PYCNYYGNSNNCHGT
The experiment can be described thus: array SPR, peptide on streptavidin chip. How it is done:
as §1, §2

Experiment [6] deals with T6, peptide 4A.6 (human).
T6 construct: 15-mer of human MS4A4A
T6 peptide: Biotin-FYSFHHPYCNYYGNS
The experiment can be described thus: array SPR, peptide on streptavidin chip. The protocol:
as §1, §2

Experiment [7] deals with T7, peptide 4A.3 (human).
T7 construct: 15-mer of human MS4A4A
T7 peptide: Biotin-CMASNTYGSNPISVY
The experiment can be described thus: array SPR, peptide on streptavidin chip. The protocol: as §1, §2

Experiment [8] deals with T8, peptide 4A.7 (human).
T8 construct: 15-mer of human MS4A4A
T8 peptide: Biotin-SFHHPYCNYYGNSNN
Kind of experiment: array SPR, peptide on streptavidin chip. How it is done:
as §1, §2

Experiment [9] concerns the target T9, peptide 4A.8 (human, cysteine pairing not given here).
T9 construct: 15-mer of human MS4A4A
T9 peptide: Biotin-HHPYCNYYGNSNNCH
The experiment can be described thus: array SPR, peptide on streptavidin chip. How it is done:
as §1, §2

Experiment [10] addresses T10, peptide 4A.10 (human, cysteine pairing not given here).
T10 construct: 15-mer of human MS4A4A
T10 peptide: Biotin-CNYYGNSNNCHGTMS
Kind of experiment: array SPR, peptide on streptavidin chip. The protocol:
as §1, §2

For experiment [11], the target named is T11, peptide 4A.5 (human).
T11 construct: 15-mer of human MS4A4A
T11 peptide: Biotin-LAFYSFHHPYCNYYG
The experiment can be described thus: array SPR, peptide on streptavidin chip. How it is done:
as §1, §2

For experiment [12], the target named is T12, peptide 4A.2 (human).
T12 construct: 15-mer of human MS4A4A
T12 peptide: Biotin-MMCMASNTYGSNPIS
The experiment can be described thus: array SPR, peptide on streptavidin chip. How it is done: as §1, §2

Experiment [13] addresses T13, peptide 4A.11 (human).
T13 construct: 15-mer of human MS4A4A
T13 peptide: Biotin-YYGNSNNCHGTMSIL
The experiment can be described thus: array SPR, peptide on streptavidin chip. How it is done: as §1, §2

Experiment [14] has as its target T14, cynomolgus (cyno) MS4A4A (cynomolgus).
T14 construct: also called cy4A; Cyno 4A
Kind of experiment: FACS, HEK293, supernatant. Background: A flow cytometer gives signals particle by particle.

The target in experiment [15] is T15, human MS4A4A ECL1 peptide (amino acid residues 86-98) (human).
T15 construct: synthetic peptide
T15 peptide: CMASNTYGSNPIS
Kind of experiment: peptide ELISA. Summed up: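 Free or BSA-conjugated peptides were coated at 2 or 10 […] in 0.05M carbonate buffer, pH 9.6, overnight at 4 °C, then blocked 1 h with PBS+0.5% BSA+0.05% Tween20. Antibodies were bound 30 min at room temperature with shaking. TMB was developed 5-10 min, stopped, and absorbance read at 650 nm.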
(In general: In an ELISA, binding on a coated surface is turned into a signal by an enzyme label.)

For experiment [16], the target named is human MS4A4A (human, UniProt Q96JQ5 1-239). Kind of experiment: FACS, U937 cells, supernatant; U937 cells overexpressing h4A, ratio over parental U937; parental U937 itself scores +. The protocol:
Positive clones identified in Example 22 above were expanded and then rescreened for specificity against U937, K562, and/or 300.19 cells stably overexpressing human MS4A4A or cyno MS4A4A and parental U937, K562, and/or 300.19 cells. These experiments were performed using supernatants from hybridoma clones which had undergone further expansion after initial selection. Briefly, stably transfected cells were labeled with LIVE/DEAD Fixable Aqua Dead Cell Stain Kit (ThermoFisher Scientific Cat#L34957) on ice for 30 minutes. […] 2×10⁵ cells were aliquoted per well in 96-well U-bottom plates and incubated with 50 μl of culture supernatant on ice for 30 minutes. […] Following this secondary incubation, the cells were again washed twice with ice-cold FACS buffer and resuspended in a final volume of 200 μl of FACS buffer. Analysis was performed on a FACS Canto system (BD Biosciences), with gates drawn to exclude dead (Aqua-positive) cells.
The APC ratio was calculated for each antibody as follows. […] For cell lines overexpressing human MS4A4A (h4A) or cyno MS4A4A (cy4A), the ration was calculated by comparing the binding measured to the binding observed on the corresponding parental cell lines.

Experiment [17] deals with T1, human MS4A4A ECL2 peptide (amino acid …). The experiment can be described thus: peptide ELISA, supernatant.

B1: anti-MS4A4A antibody 4A-21 (murine) (antibody, IgG1, V domains shown)
VH: QIQLVQSGPELKKPGETVKISCKASGYIFTSYGLSWVKQTPGKGLKWMGWINTYSGVPTYANDFKGRFAFSLETSASTTYLRINNLKNDDTATYFCARSLVDYWGQGTPLTVSS
VL: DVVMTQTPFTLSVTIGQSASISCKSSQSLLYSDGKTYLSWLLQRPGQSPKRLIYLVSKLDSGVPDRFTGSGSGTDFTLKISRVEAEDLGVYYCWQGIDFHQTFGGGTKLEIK
notes: murine hybridoma antibody, msIgG1; also called 4A-21 (msIgG1)
For orientation: Kd means the equilibrium constant for the complex coming apart. Broadly, the koff is the first-order rate constant of dissociation. Low readings indicate a long-lived complex, high ones a short-lived complex. What is called kon is the rate constant with which the complex forms. For the molecule B1, the Kd in experiment [1] turned out to be 31 nM. The same molecule yielded a koff in experiment [1] of 0.0078 s⁻¹. In addition, the on-rate (kon) in [1] came out at 250000 M⁻¹ s⁻¹. Also, the SPR binding signal was -7.9 in experiment [2]; -5.2 in experiment [3]; -11.2 in experiment [4]; 225 in experiment [5]; 486 in experiment [6]; -10.6 in [7]. For the same molecule, the SPR binding signal in experiment [8] was 446; in [9], 309; in experiment [10], -4.5; in [11], 383; in experiment [12] it was -11.5; in experiment [13], -6.5. In experiment [14], the “Cyno 4A:parental cell ratio” value was determined as 1.31 ratio. In experiment [15], the binding result was “no binding”.

B2: anti-MS4A4A antibody 4A-219 (murine) (antibody, V domains shown)
VH: QVQMKQSGPGLVQPSQSLSITCTVSGFSLTSYGVHWVRQSPGKGLEWLGVIWSGGSTDYNAAFISRLSISKDNSKSQVFFKMNSLQADDTAIYYCVRLYYGYDGFAYWGQGTLVTVSS
VL: DIVMTQSHKFMSTSVGDRVSITCKASQDVSTAVAWYQQKPGQSPKLLIYSASYRYTGVPDRFTGSGSGTDFTFTISSVQAEDLAVYYCQQHYSTPLTFGAGTKLELK
notes: murine hybridoma antibody
As for B2, the “fold increase in MFI” value in [16] is > 2 fold. In addition, the binding result in [17] and in experiment [15] was “no binding” throughout.
